Experimental data taken from patent publication US20110274702A1 (INSTITUTE FOR RESEARCH IN BIOMEDICINE, published 2011).

B1: FI28 variant 1 (antibody, V domains shown)
VH: EVQLVESGGGAVQPGESLKLSCAASGFTFSNYGMHWVRQAPGKGLEWVAVISYDGSNKYYADSVKGRFTISRDNSKDTLYLQMNSLRAEDTALFYCAKERPLRLLRYFDWLSGGANDYWGQGTLVTVSS
VL: DIVMTQSPDSLAVSLGERATINCKSSQSVLYSSNNKNYLAWYQQKPGQPPKLLIDWASTRESGVPDRFSGSGSGTDFTLTISNLQVEDVAVYYCQQYYRSPSFGQGTKLEIK
B2: FI6 variant 2 (antibody, V domains shown)
VH: QVQLVQSGGGVVQPGRSLRLSCVASGFTFSTYAMHWVRQAPGRGLEWVAVISYDGNYKYYADSVKGRFSISRDNSNNTLHLEMNTLRTEDTALYYCAKDSQLRSLLYFEWLSQGYFDPWGQGTLVTVTS
VL: DIQMTQSPDSLAVSLGARATINCKSSQSVTFNYKNYLAWYQQKPGQPPKVLIYWASARESGVPDRFSGSGSGTDFTLTISSLQAEDVAVYYCQQHYRTPPTFGQGTKVEIK
B3: FI6 variant 3 (antibody, V domains shown)
VH: QVQLVESGGGVVQPGRSLRLSCAASGFTFSTYAMHWVRQAPGKGLEWVAVISYDANYKYYADSVKGRFTISRDNSKNTLYLQMNSLRAEDTAVYYCAKDSQLRSLLYFEWLSQGYFDYWGQGTLVTVSS
VL: not shown

Assays:
Assay in all cases: cell-based or functional assay
[1] = biological target: H5N1 A/VN/1203/04 HA on pseudotyped virus (influenza A virus H5N1 A/VN/1203/04)
HA A/VN/1194/04 (H5) = HA A/VN/1194/04 (H5) (influenza A virus H5 A/VN/1194/04)
[2] = biological target: H7N1 A/ck/FPV/Ro/34 HA on pseudotyped virus (influenza A virus H7N1 …, UniProt P03459 19-563)

| Binder | Neutralization of HA-pseudotypes (IC90, µg/ml) [1] [µg/mL] | Neutralization H5 A/VN/1194/04 pseudovirus, IC50 (HA A/VN/1194/04 (H5)) [µg/mL] | Neutralization H7 A/ck/FPV Rostock/34 pseudovirus, IC50 [2] [µg/mL] |
| --- | --- | --- | --- |
| B1 | 0.02 |  |  |
| B2 |  | 0.0054 | 0.02 |
| B3 |  | 0.0035 | 0.0274 |
